Laboratory results published in paper PMC10465699, “Interaction patterns of methoprene-tolerant and germ cell-expressed Drosophila JH receptors suggest significant differences in their functioning” (Frontiers in Molecular Biosciences, 2023).

B1: Fushi tarazu factor-1 ligand-binding domain (Ftz-F1 LBD, 786-1027 aa) (domain or fragment, D. melanogaster, UniProt P33244 786-1027, looked up)
chain: ALIEPLRVSPMIREFVQSIDDREWQTQLFALLQKQTYNQVEVDLFELMCKVLDQNLFSQVDWARNTVFFKDLKVDDQMKLLQHSWSDMLVLDHLHHRIHNGLPDETQLNNGQVFNLMSLGLLGVPQLGDYFNELQNKLQDLKFDMGDYVCMKFLILLNPSVRGIVNRKTVSEGHDNVQAALLDYTLTCYPSVNDKFRGLVNILPEIHAMAVRGEDHLYTKHCAGSAPTQTLLMEMLHAKRKG
notes: 15N- or 13C,15N-labelled where it was the observed protein in NMR, unlabelled otherwise; also called LBD Ftz-F1; source: E. coli BL21(DE3), purified (Ni-NTA, thrombin digestion, SEC); not shown: His6, N-terminal, cleaved

Tests used:
Settings in all cases: both partners purified
[1] = biological target: T1, Germ cell-expressed C-terminus (GceC, 661-959 aa) (D. melanogaster, UniProt Q9VXW7 661-959); assay: NMR titration; 15N-HSQC of 15N Ftz-F1 LBD without and with an equimolar quantity of unlabelled MetC or GceC; 20 mM sodium phosphate pH 6.8, 50 mM NaCl, 1 mM TCEP, 0.5 mM EDTA; 29 C
T1 construct: Germ cell-expressed (Gce) protein, D. melanogaster, UniProt Q9VXW7, residues 661-959 (C-terminal fragment); No step that removes the His tag is described; also called Gce C-terminus
T1 sequence (looked up): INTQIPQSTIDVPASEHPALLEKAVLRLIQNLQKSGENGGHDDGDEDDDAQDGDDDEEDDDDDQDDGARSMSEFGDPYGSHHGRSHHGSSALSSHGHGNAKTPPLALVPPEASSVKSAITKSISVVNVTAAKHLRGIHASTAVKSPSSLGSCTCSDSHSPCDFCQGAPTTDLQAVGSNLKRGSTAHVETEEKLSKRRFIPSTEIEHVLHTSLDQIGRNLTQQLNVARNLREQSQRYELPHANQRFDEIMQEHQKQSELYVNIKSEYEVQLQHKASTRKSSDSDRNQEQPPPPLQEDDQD

[2] = biological target: B1; assay: ITC; 1.06 mM Met^PEP titrated into 0.035 mM Ftz-F1 LBD; 25 C; 20 mM HEPES pH 6.8, 150 mM NaCl, 1 mM TCEP; duplicate, global fit to A + B = AB
[3] = biological target: B1; assay: NMR titration; 15N-HSQC of 150 uM 15N-MetC with unlabelled Ftz-F1 LBD at 0, 40, 82, 122, 199, 301 and 500 uM (cross-mixing); 20 mM Bis-Tris pH 6.5, 150 mM NaCl, 5 mM bME; 18 C

B1
binding result [1]: binds

B2: Met^PEP, 19-residue peptide of the novel NR-box of MetC (peptide)
peptide: LERIVLYLIENLQKSVDSA
notes: 19-residue peptide representing the novel NR-box in the C-terminus of Met, D. melanogaster, UniProt Q9VYW2; also called MetC^PEP; source: synthetic peptide (PSL GmbH, Heidelberg)
Kd [2]: 9.9 µM | dH [2]: -1.1 kcal/mol | stoichiometry N [2]: 1

B3: Methoprene-tolerant C-terminus (MetC, 509-716 aa) (domain or fragment, D. melanogaster, UniProt Q9VYW2 509-716, looked up)
chain: AGRQKVQEMKEKFSTIIKAEMPTQSSSPDLPASQAPQQLERIVLYLIENLQKSVDSAETVGGQGMESLMDDGYSSPANTLTLEELAPSPTPALALVPPAPSSVKSSISKSVSVVNVTAARKFQQEHQKQRERDREQLKERTNSTQGVIRQLSSCLSEAETASCILSPASSLSASEAPDTPDPHSNTSPPPSLHTRPSVLHRTLTSTLR
notes: Methoprene-tolerant (Met) protein, D. melanogaster, UniProt Q9VYW2, residues 509-716 (C-terminal fragment); 15N- or 13C,15N-labelled where it was the observed protein in NMR, unlabelled where it was added to 15N Ftz-F1 LBD; also called Met C-terminus; source: E. coli BL21(DE3), purified (Ni-NTA, on-column SUMO hydrolase digestion, SEC); not shown: His6, N-terminal, cleaved; SUMO, N-terminal, …
binding result [3]: binds
